B1: GST-Cuz1, full length wild type (plasmid pJH150) (natural protein, S. cerevisiae, UniProt P53899 1-274, looked up)
chain: MSAAIEKETGMLDVGKHCAYCRQLDFLPFHCSFCNEDFCSNHRLKEDHHCRWLLEHEEVHKTEKSPSKSRDGSSSNDEAYFKSLLPERASVRIQRVSETREPLRGSNTAKVSSTLNSKTLDKIFKFFQRNEKRKSNNKSKKNFGSSSNKIIQLANLKKIAKGDPKIPMQNRIYIWCYLVDGDETDIAKEDTRMPLYINKMWPVGRAMDYLSIQLNVKSSTLTNSSSNDKFQLCKLKEGKQVSFYNIGASLRVTNEIKDLDTLYLVHNNADEKSN
notes: Cuz1 (systematic name Ynl155w), S. cerevisiae, 274 amino acids, full length; also called Ynl155w; GST-tagged Cuz1
B2: GST-Cuz1 LDFL→AAAA, full length (plasmid pJH171) (natural protein, S. cerevisiae, UniProt P53899 1-274, looked up)
chain: MSAAIEKETGMLDVGKHCAYCRQAAAAPFHCSFCNEDFCSNHRLKEDHHCRWLLEHEEVHKTEKSPSKSRDGSSSNDEAYFKSLLPERASVRIQRVSETREPLRGSNTAKVSSTLNSKTLDKIFKFFQRNEKRKSNNKSKKNFGSSSNKIIQLANLKKIAKGDPKIPMQNRIYIWCYLVDGDETDIAKEDTRMPLYINKMWPVGRAMDYLSIQLNVKSSTLTNSSSNDKFQLCKLKEGKQVSFYNIGASLRVTNEIKDLDTLYLVHNNADEKSN
notes: Cuz1 (systematic name Ynl155w), S. cerevisiae, 274 amino acids, full length, with LDFL (L24, D25, F26, L27) changed to AAAA; Made by site-directed mutagenesis of pJH150; also called Cuz1^LDFL→AAAA mutant; Cuz1 LDFL mutant

Target: T1, 12xHis-SUMO-Cdc48 (S. cerevisiae, UniProt P25694 1-835)
T1 construct: Cdc48, multifunctional ATPase, S. cerevisiae, full length; also called 12xHis-Sumo-tagged Cdc48; p97 in higher organisms
Test: pull-down; GST-tagged Cuz1 species added to 12xHis-Sumo-tagged Cdc48 or to beads alone; bound Cuz1 seen by SDS-PAGE and anti-Cuz1 immunoblot; as previously described in ref. 7
Settings: both partners purified

T1 sequence (P25694 whole entry): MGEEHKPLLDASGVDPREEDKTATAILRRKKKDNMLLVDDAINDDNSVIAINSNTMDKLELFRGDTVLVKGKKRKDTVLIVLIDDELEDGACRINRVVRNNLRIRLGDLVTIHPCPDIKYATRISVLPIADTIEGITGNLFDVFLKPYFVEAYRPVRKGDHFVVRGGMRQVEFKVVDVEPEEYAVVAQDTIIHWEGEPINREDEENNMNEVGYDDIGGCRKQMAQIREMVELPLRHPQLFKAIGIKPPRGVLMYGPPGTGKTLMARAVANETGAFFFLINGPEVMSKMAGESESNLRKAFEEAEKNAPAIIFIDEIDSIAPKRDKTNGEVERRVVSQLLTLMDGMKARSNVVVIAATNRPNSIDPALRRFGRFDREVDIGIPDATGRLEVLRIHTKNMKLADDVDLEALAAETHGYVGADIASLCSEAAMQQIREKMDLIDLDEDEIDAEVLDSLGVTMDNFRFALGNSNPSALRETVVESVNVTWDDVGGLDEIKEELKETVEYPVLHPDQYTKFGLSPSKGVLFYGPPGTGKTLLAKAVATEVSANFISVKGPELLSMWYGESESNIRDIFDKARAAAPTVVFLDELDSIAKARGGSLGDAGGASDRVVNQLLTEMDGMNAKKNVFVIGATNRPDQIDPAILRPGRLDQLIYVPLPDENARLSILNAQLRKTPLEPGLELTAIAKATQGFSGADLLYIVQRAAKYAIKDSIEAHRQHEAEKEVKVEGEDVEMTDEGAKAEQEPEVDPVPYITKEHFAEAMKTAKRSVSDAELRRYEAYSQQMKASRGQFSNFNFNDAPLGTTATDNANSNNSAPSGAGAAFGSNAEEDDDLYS

| Binder | binding result |
| --- | --- |
| B1 | binds |
| B2 | binds |

— article PMC5035049, “Solution Structure of the Cuz1 AN1 Zinc Finger Domain: An Exposed LDFLP Motif Defines a Subfamily of AN1 Proteins” (PLoS ONE, 2016)
